Consider 125 sequences from the supplement of paper PMC9112550, “Optimization of the antimicrobial peptide Bac7 by deep mutational scanning” (BMC Biology, 2022).

This series has as its system Escherichia coli TOP10. Kind of series: shrunken log2 fold change of peptide-encoding DNA abundance (4.5 h post-induction vs induction); higher = less antimicrobial activity (less host growth inhibition). The following applies: time post-induction: 4.5 h; library: site-saturation at positions 5, 18, 19, 20.
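Further: peptides expressed intracellularly from a pBAD plasmid library in pooled LB shake-flask culture, induced with 0.3% L-arabinose, DNA abundance read by NGS, three biological replicates, DESeq2 with apeglm shrinkage.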

Consider RRIRRRPPRLPRPRPRPVMDPRP, for which the “shrunken log2 fold change” value is -0.0641.

With RRIRVRPPRLPRPRPRPNIKPRP, the “shrunken log2 fold change” value is -0.497.

As for RRIRKRPPRLPRPRPRPQGTPRP, the “shrunken log2 fold change” value is -0.0539.

As for RRIRGRPPRLPRPRPRPLYMPRP, the “shrunken log2 fold change” value is 0.185.

On to RRIRQRPPRLPRPRPRPAFQPRP, for which the “shrunken log2 fold change” value stood at 0.0837.

For the sequence RRIRWRPPRLPRPRPRPDSEPRP, the “shrunken log2 fold change” value amounted to 1.48.

On to RRIRDRPPRLPRPRPRPNWVPRP, for which the “shrunken log2 fold change” value turned out to be 0.0019.

Take RRIRERPPRLPRPRPRPLLPPRP: the “shrunken log2 fold change” value was -0.119.

Take RRIRKRPPRLPRPRPRPHAMPRP: the “shrunken log2 fold change” value was -0.0147.

Consider RRIRSRPPRLPRPRPRPHKKPRP, for which the “shrunken log2 fold change” value was -0.0645.

RRIRLRPPRLPRPRPRPYFDPRP: the “shrunken log2 fold change” value is -0.255.

As to RRIRGRPPRLPRPRPRPHPCPRP, the “shrunken log2 fold change” value was 0.922.

In the case of RRIRIRPPRLPRPRPRPSKNPRP, the “shrunken log2 fold change” value is -0.76.

In the case of RRIRIRPPRLPRPRPRPQIRPRP, the “shrunken log2 fold change” value was -0.64.

Consider RRIRARPPRLPRPRPRPIKHPRP, for which the “shrunken log2 fold change” value was -0.0409.

With RRIRTRPPRLPRPRPRPQPDPRP, the “shrunken log2 fold change” value was -0.136.

With RRIRTRPPRLPRPRPRPRTKPRP, the “shrunken log2 fold change” value worked out at 0.74.

For the sequence RRIRDRPPRLPRPRPRPPGQPRP, the “shrunken log2 fold change” value turned out to be 0.0311.

For RRIRARPPRLPRPRPRPADSPRP, the “shrunken log2 fold change” value amounted to 0.00021.

On to RRIRCRPPRLPRPRPRPCDDPRP, for which the “shrunken log2 fold change” value was determined as 0.0119.

RRIRFRPPRLPRPRPRPHRKPRP: the “shrunken log2 fold change” value was found to be 0.306.

Turning to RRIRIRPPRLPRPRPRPLKHPRP, the “shrunken log2 fold change” value was -0.58.

Turning to RRIRQRPPRLPRPRPRPGCEPRP, the “shrunken log2 fold change” value came to 0.0109.

Consider RRIRARPPRLPRPRPRPILWPRP, for which the “shrunken log2 fold change” value turned out to be 0.254.

Take RRIRSRPPRLPRPRPRPLITPRP: the “shrunken log2 fold change” value is -0.012.

With RRIRTRPPRLPRPRPRPKHMPRP, the “shrunken log2 fold change” value was -0.081.

For RRIRSRPPRLPRPRPRPLFRPRP, the “shrunken log2 fold change” value was -0.368.

For RRIRDRPPRLPRPRPRPIEKPRP, the “shrunken log2 fold change” value was -0.0135.

For the sequence RRIRGRPPRLPRPRPRPPRYPRP, the “shrunken log2 fold change” value was determined as 0.701.

Consider RRIRPRPPRLPRPRPRPYECPRP, for which the “shrunken log2 fold change” value is 0.0143.

Take RRIRCRPPRLPRPRPRPQPFPRP: the “shrunken log2 fold change” value is 0.00986.

In the case of RRIRWRPPRLPRPRPRPPSQPRP, the “shrunken log2 fold change” value was determined as 0.452.

As for RRIRPRPPRLPRPRPRPYISPRP, the “shrunken log2 fold change” value is -0.75.

For the sequence RRIRARPPRLPRPRPRPDFKPRP, the “shrunken log2 fold change” value came out at 0.00723.

As for RRIRMRPPRLPRPRPRPTKNPRP, the “shrunken log2 fold change” value came out at 1.35.

For the sequence RRIRQRPPRLPRPRPRPRVSPRP, the “shrunken log2 fold change” value was -0.0909.

Regarding RRIRGRPPRLPRPRPRPHGIPRP, the “shrunken log2 fold change” value was 0.00234.

For the sequence RRIRRRPPRLPRPRPRPANYPRP, the “shrunken log2 fold change” value was -0.049.

On to RRIRIRPPRLPRPRPRPKCMPRP, for which the “shrunken log2 fold change” value was -0.229.

In the case of RRIRKRPPRLPRPRPRPYAKPRP, the “shrunken log2 fold change” value is -0.0729.

For RRIRCRPPRLPRPRPRPRCQPRP, the “shrunken log2 fold change” value is -0.146.

With RRIRARPPRLPRPRPRPERKPRP, the “shrunken log2 fold change” value stood at 1.16.

Regarding RRIRIRPPRLPRPRPRPHVWPRP, the “shrunken log2 fold change” value was -0.287.

With RRIRPRPPRLPRPRPRPWLMPRP, the “shrunken log2 fold change” value was -0.118.

Regarding RRIRQRPPRLPRPRPRPASVPRP, the “shrunken log2 fold change” value is 0.253.

With RRIRFRPPRLPRPRPRPYFDPRP, the “shrunken log2 fold change” value was -0.489.

Regarding RRIRSRPPRLPRPRPRPQGNPRP, the “shrunken log2 fold change” value is -0.679.

RRIRFRPPRLPRPRPRPFTCPRP: the “shrunken log2 fold change” value is -0.271.

Consider RRIRERPPRLPRPRPRPPCTPRP, for which the “shrunken log2 fold change” value amounted to 0.0136.

As to RRIRMRPPRLPRPRPRPTKTPRP, the “shrunken log2 fold change” value was 0.334.

Regarding RRIRGRPPRLPRPRPRPVGGPRP, the “shrunken log2 fold change” value turned out to be 0.897.

As for RRIRHRPPRLPRPRPRPKGGPRP, the “shrunken log2 fold change” value stood at 0.0418.

With RRIRHRPPRLPRPRPRPHCHPRP, the “shrunken log2 fold change” value is -0.551.

RRIRKRPPRLPRPRPRPTGQPRP: the “shrunken log2 fold change” value was determined as 0.84.

Take RRIRVRPPRLPRPRPRPANPPRP: the “shrunken log2 fold change” value was -0.21.

As to RRIRMRPPRLPRPRPRPRTQPRP, the “shrunken log2 fold change” value was found to be 0.97.

On to RRIRSRPPRLPRPRPRPQECPRP, for which the “shrunken log2 fold change” value is -0.0587.

RRIRRRPPRLPRPRPRPDKCPRP: the “shrunken log2 fold change” value is -0.0562.

In the case of RRIRHRPPRLPRPRPRPLMDPRP, the “shrunken log2 fold change” value is -0.974.

In the case of RRIRLRPPRLPRPRPRPLDMPRP, the “shrunken log2 fold change” value is -0.358.

For the sequence RRIRNRPPRLPRPRPRPWDCPRP, the “shrunken log2 fold change” value is -0.118.

As to RRIRRRPPRLPRPRPRPGIAPRP, the “shrunken log2 fold change” value worked out at 0.185.

With RRIRIRPPRLPRPRPRPRHWPRP, the “shrunken log2 fold change” value was -0.12.

With RRIRVRPPRLPRPRPRPRYLPRP, the “shrunken log2 fold change” value was -0.184.

Consider RRIRARPPRLPRPRPRPPYNPRP, for which the “shrunken log2 fold change” value was -0.399.

RRIRTRPPRLPRPRPRPSGNPRP: the “shrunken log2 fold change” value is -0.168.

Take RRIRERPPRLPRPRPRPCASPRP: the “shrunken log2 fold change” value is -0.172.

In the case of RRIRFRPPRLPRPRPRPAWDPRP, the “shrunken log2 fold change” value came out at 0.0926.

Consider RRIRIRPPRLPRPRPRPEQLPRP, for which the “shrunken log2 fold change” value was -0.148.

Take RRIRARPPRLPRPRPRPPDAPRP: the “shrunken log2 fold change” value was 1.25.

Regarding RRIRLRPPRLPRPRPRPRYSPRP, the “shrunken log2 fold change” value is -0.087.

As for RRIRHRPPRLPRPRPRPPKLPRP, the “shrunken log2 fold change” value was 0.12.

Consider RRIRYRPPRLPRPRPRPDNDPRP, for which the “shrunken log2 fold change” value was -0.17.

Turning to RRIRPRPPRLPRPRPRPHYIPRP, the “shrunken log2 fold change” value was -0.586.

On to RRIRWRPPRLPRPRPRPFMRPRP, for which the “shrunken log2 fold change” value is 0.276.

For the sequence RRIRGRPPRLPRPRPRPQNQPRP, the “shrunken log2 fold change” value stood at 0.0596.

Consider RRIRMRPPRLPRPRPRPKNSPRP, for which the “shrunken log2 fold change” value amounted to 0.132.

On to RRIRYRPPRLPRPRPRPWPEPRP, for which the “shrunken log2 fold change” value is -0.0592.

RRIRPRPPRLPRPRPRPGATPRP: the “shrunken log2 fold change” value came to 0.54.

Turning to RRIRFRPPRLPRPRPRPLEQPRP, the “shrunken log2 fold change” value came to 0.0789.

Take RRIRCRPPRLPRPRPRPREKPRP: the “shrunken log2 fold change” value was found to be 1.12.

As for RRIRHRPPRLPRPRPRPIFNPRP, the “shrunken log2 fold change” value is -0.447.

In the case of RRIRHRPPRLPRPRPRPSRTPRP, the “shrunken log2 fold change” value turned out to be 0.138.

Turning to RRIRMRPPRLPRPRPRPDEGPRP, the “shrunken log2 fold change” value was -0.0141.

For RRIRVRPPRLPRPRPRPNHFPRP, the “shrunken log2 fold change” value is -0.346.

As to RRIRTRPPRLPRPRPRPNTFPRP, the “shrunken log2 fold change” value is -0.668.

As to RRIRLRPPRLPRPRPRPRSSPRP, the “shrunken log2 fold change” value is -0.277.

Take RRIRVRPPRLPRPRPRPTNKPRP: the “shrunken log2 fold change” value is -0.254.

RRIRPRPPRLPRPRPRPIRMPRP: the “shrunken log2 fold change” value is -0.039.

With RRIRLRPPRLPRPRPRPVIYPRP, the “shrunken log2 fold change” value was -0.224.

Turning to RRIRHRPPRLPRPRPRPHAFPRP, the “shrunken log2 fold change” value is -0.0301.

RRIRCRPPRLPRPRPRPAYYPRP: the “shrunken log2 fold change” value is -0.476.

As for RRIRLRPPRLPRPRPRPTSHPRP, the “shrunken log2 fold change” value is -0.0914.

For the sequence RRIRHRPPRLPRPRPRPSAPPRP, the “shrunken log2 fold change” value is -0.239.

Regarding RRIRDRPPRLPRPRPRPQKQPRP, the “shrunken log2 fold change” value came to 0.086.

For RRIRYRPPRLPRPRPRPLDAPRP, the “shrunken log2 fold change” value was -0.0975.

For the sequence RRIRRRPPRLPRPRPRPIHTPRP, the “shrunken log2 fold change” value was found to be 0.00898.

On to RRIRIRPPRLPRPRPRPIMVPRP, for which the “shrunken log2 fold change” value was -0.412.

RRIRQRPPRLPRPRPRPMKRPRP: the “shrunken log2 fold change” value is -0.111.

With RRIRSRPPRLPRPRPRPRCQPRP, the “shrunken log2 fold change” value came out at 0.0737.

As to RRIRERPPRLPRPRPRPEGQPRP, the “shrunken log2 fold change” value is -0.015.

Turning to RRIRRRPPRLPRPRPRPGMQPRP, the “shrunken log2 fold change” value was 0.245.

Regarding RRIRIRPPRLPRPRPRPRWYPRP, the “shrunken log2 fold change” value is -0.452.

Consider RRIRRRPPRLPRPRPRPVWWPRP, for which the “shrunken log2 fold change” value is 0.703.

As to RRIRERPPRLPRPRPRPQGCPRP, the “shrunken log2 fold change” value was -0.0179.

As to RRIRTRPPRLPRPRPRPFKWPRP, the “shrunken log2 fold change” value is -0.121.

Consider RRIRNRPPRLPRPRPRPKDMPRP, for which the “shrunken log2 fold change” value was -0.0164.

In the case of RRIRPRPPRLPRPRPRPYYPPRP, the “shrunken log2 fold change” value is -0.439.

RRIRWRPPRLPRPRPRPNHFPRP: the “shrunken log2 fold change” value was -0.429.

For the sequence RRIRKRPPRLPRPRPRPIDAPRP, the “shrunken log2 fold change” value stood at 0.318.

Turning to RRIRNRPPRLPRPRPRPHSKPRP, the “shrunken log2 fold change” value is -0.117.

Take RRIRGRPPRLPRPRPRPPKNPRP: the “shrunken log2 fold change” value amounted to 1.11.

Take RRIRRRPPRLPRPRPRPCPQPRP: the “shrunken log2 fold change” value was 0.0779.

On to RRIRARPPRLPRPRPRPPLIPRP, for which the “shrunken log2 fold change” value worked out at 0.299.

As for RRIRVRPPRLPRPRPRPDHQPRP, the “shrunken log2 fold change” value is -0.00679.

As for RRIRERPPRLPRPRPRPKLQPRP, the “shrunken log2 fold change” value is 0.00297.

RRIRYRPPRLPRPRPRPLTEPRP: the “shrunken log2 fold change” value is -0.00518.

In the case of RRIRDRPPRLPRPRPRPWWVPRP, the “shrunken log2 fold change” value is -0.335.

Take RRIRERPPRLPRPRPRPWGVPRP: the “shrunken log2 fold change” value was -0.284.

Regarding RRIRSRPPRLPRPRPRPHDMPRP, the “shrunken log2 fold change” value was -0.335.

Turning to RRIRIRPPRLPRPRPRPMESPRP, the “shrunken log2 fold change” value was -0.00136.

Take RRIRERPPRLPRPRPRPWLCPRP: the “shrunken log2 fold change” value was -0.0006.

In the case of RRIRIRPPRLPRPRPRPNKQPRP, the “shrunken log2 fold change” value is -0.525.

As to RRIRLRPPRLPRPRPRPEYWPRP, the “shrunken log2 fold change” value is -0.0516.

Take RRIRPRPPRLPRPRPRPEIFPRP: the “shrunken log2 fold change” value amounted to 0.137.
